For the test, the target named is Gal4 Cyclin T1s with a mutated Y175.

B1: Hexim1, endogenous in HEK293 cells, O94992 1-359 (natural protein)
chain: MAEPFLSEYQHQPQTSNCTGAAAVQEELNPERPPGAEERVPEEDSRWQSRAFPQLGGRPGPEGEGSLESQPPPLQTQACPESSCLREGEKGQNGDDSSAGGDFPPPAEVEPTPEAELLAQPCHDSEASKLGAPAAGGEEEWGQQQRQLGKKKHRRRPSKKKRHWKPYYKLTWEEKKKFDEKQSLRASRIRAEMFAKGQPVAPYNTTQFLMDDHDQEEPDLKTGLYSKRAAAKSDDTSDDDFMEEGGEEDGGSDGMGGDGSEFLQRDFSETYERYHTESLQNMSKQELIKEYLELEKCLSRMEDENNRLRLESKRLGGDDARVRELELELDRLRAENLQLLTENELHRQQERAPLSKFGD
In turn, B1 registered an other of 2 fold.
